# Results reported in PMC12095580, “Wnt signalosome assembly is governed by conformational flexibility of Axin and by the AP2 clathrin adaptor” (Nature Communications, 2025).
# Non-standard residues stand in square brackets, D forms with d. No end group written: not given here. pS = N[C@@H](COP(=O)(O)O)C(=O)O; Lip = Lipoyl solubility tag; His6x = hexahistidine tag
# T1: His6x-Lip-L1_(LRP6) (LRP6_(1463-1538) bearing YYYF > A) (UniProt O75581 1463-1538, YYYF > A (Y1517; position worked out from S1516 and S1521, p-0048) | YYYF > A …)
# T1 sequence: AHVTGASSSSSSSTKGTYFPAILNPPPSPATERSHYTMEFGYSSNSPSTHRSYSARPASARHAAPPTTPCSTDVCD
# T2: His6x-Lip-L1_(LRP6) (LRP6_(1463-1538) bearing YYYF > A) (UniProt O75581 1463-1538, YYYF > A (Y1517; position worked out from S1516 and S1521, p-0048) | YYYF > A …, Lipoyl solubility tag omitted. Mutated positions are not given; inferred because LIRup (308-344) should contain exactly five Asp and one Glu, in the order D-E-D4, and the text says all …)
# T2 sequence: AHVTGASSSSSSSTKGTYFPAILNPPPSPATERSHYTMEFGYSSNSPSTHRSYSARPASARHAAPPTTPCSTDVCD
# T3: RKR mutant Axin Lip-LIRα (UniProt O15169 345-361, RKR > A (R347) | RKR > A (K350) | RKR > A (R354))
# T3 chain: PYAIRAQHRAEMQESVQ
# T4: Axin Lip-LIRα (UniProt O15169 345-361)
# T4 chain: PYRIRKQHRREMQESVQ
# T5: phosphorylated Axin LIRup peptide (43PPP, Axin_(308-351) including pS317, pS321, pS325) (UniProt O15169 308-351, phosphoserine at 317, 321 and 325)
# T5 construct: Axin1 LIRup with 7 residues of LIRα; A308-Q351 counts 44 residues though the peptide is called 43PPP; source: synthetic peptide, bought: Biomatic
# T5 peptide (looked up): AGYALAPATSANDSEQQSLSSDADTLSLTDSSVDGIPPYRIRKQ
# What was measured:
# [1] = target: Axin1 LIRα, 345-361 (UniProt O15169); experiment: ITC; conditions: reference: unphosphorylated 43mer peptide; sites S317,S321,S325
# [2] = target: His6x-Lip-L2_(LRP6) (LRP6_(1539-1613)) (UniProt O75581); experiment: ITC; binding of GSK3 or Axin to the CPPSPYT element of the distal LRP6 ctail; constructs and concentrations not told
# [3] = target: LRP6-GFP (UniProt O75581); experiment: coIP (GFP IP, α-Axin1 blot densitometry); conditions: co-expressed with wt GSK3β-HA
# [4] = target: His6x-Lip-A5_(Axin) (Axin_(308-366)) (UniProt O15169); experiment: ITC; 50 μM Axin fragment or GSK3β titrated with 500 μM Lip-L1_(LRP6); 25 °C, 25 mM sodium phosphate pH 6.7, 150 mM NaCl; one set of binding sites; apparent KD assuming 1:1
# [5] = target: LRP6-GFP (UniProt O75581); experiment: coIP (GFP IP, α-HA blot densitometry)
# [6] = target: GSK3β-HA (UniProt P49841); experiment: coIP (GFP IP, α-HA blot densitometry)
# [7] = target: FLAG-Axin1 (UniProt O15169); experiment: coIP (GFP IP, α-FLAG blot densitometry); conditions: HEK293T cells, co-expressed with wt GSK3β-HA
# [8] = target: T1, His6x-Lip-L1_(LRP6) (LRP6_(1463-1538) …); experiment: ITC
# [9] = target: His6x-AP2μ (YxxΦ-binding domain of rat AP2μ) (rat); experiment: ITC; 114 or 100 μM His6x-AP2μ titrated with 2 mM (SYRHFA) or 1.74 mM (…) His6x-Lip-YxxΦ peptide; 25 °C, 50 mM Tris-HCl pH 7.4, 300 mM NaCl
# [10] = target: T2, His6x-Lip-L1_(LRP6) (LRP6_(1463-1538) …); experiment: ITC
# [11] = target: T3, RKR mutant Axin Lip-LIRα; experiment: ITC; phosphorylated 43PPP
# [12] = target: T4, Axin Lip-LIRα; experiment: ITC; phosphorylated 43PPP
# [13] = target: T5, phosphorylated Axin LIRup peptide …; experiment: ITC; 50 μM synthetic 43mer or 43PPP peptide in the cell titrated with 500 μM wt or RKR mutant Axin Lip-LIRα; 25 °C, 25 mM sodium phosphate pH 6.7, 150 mM NaCl; conditions: both partners purified
# [14] = target: T6, GSK3β-K85R (recombinant, full-length) (UniProt P49841 1-420, K85R); experiment: NMR titration; BEST-TROSY peak height attenuation (bleaching): 80 μM 15N-labelled protein +/- 80 μM unlabelled partner; 25 mM sodium phosphate pH 6.7, 150 mM NaCl, 293 K; conditions: both partners purified
# T6 construct: glycogen synthase kinase 3β, catalytically dead; also called catalytically-dead GSK3; source: E. coli BL21-CodonPlus(DE3)-RIL, purified (glutathione agarose, 3C cleavage, Superdex 200); not shown: GST, N-terminal, cleaved
# [15] = HEK293T cells, co-expressed with wt FLAG-Axin1
# LRP6-GFP, sequence (O75581 20-1613): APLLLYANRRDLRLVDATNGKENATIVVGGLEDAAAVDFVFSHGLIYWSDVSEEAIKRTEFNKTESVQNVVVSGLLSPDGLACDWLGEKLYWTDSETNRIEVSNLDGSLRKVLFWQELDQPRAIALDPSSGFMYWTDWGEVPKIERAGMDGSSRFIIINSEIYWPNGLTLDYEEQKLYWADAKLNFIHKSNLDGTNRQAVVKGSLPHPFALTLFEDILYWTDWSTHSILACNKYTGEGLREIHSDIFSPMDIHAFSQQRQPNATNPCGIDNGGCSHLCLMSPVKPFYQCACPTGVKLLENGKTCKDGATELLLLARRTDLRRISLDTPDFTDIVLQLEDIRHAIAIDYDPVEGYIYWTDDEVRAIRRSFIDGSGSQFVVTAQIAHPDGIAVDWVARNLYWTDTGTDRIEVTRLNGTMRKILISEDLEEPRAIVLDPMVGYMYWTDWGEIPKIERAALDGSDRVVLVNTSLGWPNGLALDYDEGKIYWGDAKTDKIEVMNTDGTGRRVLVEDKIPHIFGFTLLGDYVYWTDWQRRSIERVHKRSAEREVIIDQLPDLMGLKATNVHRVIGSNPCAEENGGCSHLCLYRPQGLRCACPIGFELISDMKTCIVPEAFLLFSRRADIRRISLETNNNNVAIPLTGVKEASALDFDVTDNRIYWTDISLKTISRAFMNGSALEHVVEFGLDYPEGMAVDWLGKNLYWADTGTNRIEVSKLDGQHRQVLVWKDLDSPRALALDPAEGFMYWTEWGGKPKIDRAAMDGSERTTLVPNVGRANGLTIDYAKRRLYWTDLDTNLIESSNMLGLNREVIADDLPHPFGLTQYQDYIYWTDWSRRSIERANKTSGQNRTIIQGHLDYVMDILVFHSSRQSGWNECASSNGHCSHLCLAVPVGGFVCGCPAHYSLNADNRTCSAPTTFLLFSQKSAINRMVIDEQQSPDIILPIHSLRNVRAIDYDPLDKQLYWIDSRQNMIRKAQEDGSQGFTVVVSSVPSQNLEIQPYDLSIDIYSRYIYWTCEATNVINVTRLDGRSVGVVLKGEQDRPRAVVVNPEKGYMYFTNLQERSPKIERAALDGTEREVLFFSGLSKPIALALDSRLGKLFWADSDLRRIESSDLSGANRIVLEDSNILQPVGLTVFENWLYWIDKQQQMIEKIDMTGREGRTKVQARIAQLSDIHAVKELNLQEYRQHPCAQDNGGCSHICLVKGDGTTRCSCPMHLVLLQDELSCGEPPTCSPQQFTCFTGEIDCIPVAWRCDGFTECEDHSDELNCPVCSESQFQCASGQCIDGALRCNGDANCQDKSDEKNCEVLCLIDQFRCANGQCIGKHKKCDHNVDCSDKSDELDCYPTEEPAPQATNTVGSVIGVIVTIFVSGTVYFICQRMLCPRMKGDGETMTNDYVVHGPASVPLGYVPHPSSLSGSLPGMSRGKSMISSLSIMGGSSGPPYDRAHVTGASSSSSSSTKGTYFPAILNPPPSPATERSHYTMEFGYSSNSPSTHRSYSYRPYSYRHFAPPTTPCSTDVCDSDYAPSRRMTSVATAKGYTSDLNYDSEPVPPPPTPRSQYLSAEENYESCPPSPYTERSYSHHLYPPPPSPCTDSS
# His6x-Lip-L2_(LRP6) (LRP6_(1539-1613)), sequence (O75581 1539-1613): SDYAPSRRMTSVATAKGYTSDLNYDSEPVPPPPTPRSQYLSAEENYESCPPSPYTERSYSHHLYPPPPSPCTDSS
# FLAG-Axin1 (from UniProt O15169) S493A; S497A, sequence (O15169 whole entry, stated change not applied): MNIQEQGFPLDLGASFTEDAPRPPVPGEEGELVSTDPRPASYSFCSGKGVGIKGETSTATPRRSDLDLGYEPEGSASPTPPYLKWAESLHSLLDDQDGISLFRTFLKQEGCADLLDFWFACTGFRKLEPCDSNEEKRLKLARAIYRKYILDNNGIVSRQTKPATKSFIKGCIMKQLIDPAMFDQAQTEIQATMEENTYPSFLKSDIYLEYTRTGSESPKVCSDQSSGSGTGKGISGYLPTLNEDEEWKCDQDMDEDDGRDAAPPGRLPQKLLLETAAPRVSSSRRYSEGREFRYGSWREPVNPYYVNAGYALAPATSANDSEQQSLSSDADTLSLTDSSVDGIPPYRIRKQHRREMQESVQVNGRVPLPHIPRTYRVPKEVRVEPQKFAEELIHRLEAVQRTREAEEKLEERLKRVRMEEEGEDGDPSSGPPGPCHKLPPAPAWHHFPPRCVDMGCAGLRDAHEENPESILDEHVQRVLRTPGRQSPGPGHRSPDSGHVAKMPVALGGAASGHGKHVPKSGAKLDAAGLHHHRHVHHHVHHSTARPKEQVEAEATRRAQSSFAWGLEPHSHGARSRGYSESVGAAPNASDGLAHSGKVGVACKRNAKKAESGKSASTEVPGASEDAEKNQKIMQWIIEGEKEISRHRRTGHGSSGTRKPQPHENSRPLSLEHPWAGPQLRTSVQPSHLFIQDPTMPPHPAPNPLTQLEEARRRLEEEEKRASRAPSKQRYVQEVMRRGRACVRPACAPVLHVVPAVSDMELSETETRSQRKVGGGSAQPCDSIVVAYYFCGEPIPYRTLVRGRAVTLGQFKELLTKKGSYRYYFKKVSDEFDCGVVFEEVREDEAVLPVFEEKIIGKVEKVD
# FLAG-Axin1 (from UniProt O15169) S493D; S497D, sequence (O15169 whole entry, stated change not applied): as above
molecule,measurement,setting,value
"Axin1 LIRup peptide, 308-351 (from UniProt O15169) 43PPP peptide (pS317, pS321, pS325)",binding against the reference,[1],stronger
"GSK3β (recombinant, full-length wt) (from UniProt P49841 1-420) (enzyme)",Kd,[2],> 500 µM
FLAG-Axin1 (from UniProt O15169) S493D; S497D,ratio to parent,[3],0.56
His6x-Lip-L1_(LRP6) (LRP6_(1463-1538) bearing YYYF > A) (from UniProt O75581 1463-1538) (domain or fragment),Kd,[4],1.37 µM
GSK3β-HA (from UniProt P49841) VE>GR,ratio to parent,[5]; [15],0.05
same,ratio to parent,[5]; co-expressed with FLAG-Axin1 S1>A (the wt = 1.00 lane has wt Axin; wt GSK3β-HA with Axin S1>A reads 2.98),0.03
"LRP6-GFP (from UniProt O75581) m10 (PPPSPxS>PPPAPxA, motifs A-E)",ratio to parent,[6]; [15],0.07
same,ratio to parent,[6]; co-expressed with FLAG-Axin1 S1>A (the wt = 1.00 lane has wt Axin),0.01
same,ratio to parent,[7],0.11
FLAG-Axin1 (from UniProt O15169) S493A; S497A,ratio to parent,[3],1.57
Lip-RKR > A (in Lip-A5_(Axin)) (domain or fragment) AGYALAPATSANDSEQQSLSSDADTLSLTDSSVDGIPPYAIRAQHRAEMQESVQVNGRV,Kd,[8],5.15 µM
{His6x-Lip}-SYRHFA [His6x-Lip-SYRHFA peptide],Kd,[9],16.2 µM
Lip-DED4 > A (in Lip-A5_(Axin)) (domain or fragment) AGYALAPATSANASAQQSLSSAAATLSLTASSVAGIPPYRIRKQHRREMQESVQVNGRV,Kd,[10],118 µM
"AGYALAPAT[pS]AND[pS]EQQ[pS]LSSDADTLSLTDSSVDGIPPYRIRKQ [phosphorylated Axin LIRup peptide (43PPP, Axin_(308-351) including pS317, pS321, pS325)]",Kd,[11],448 µM
same,Kd,[12],47.9 µM
{His6x-Lip}-SYRPYSYRHFA [His6x-Lip-… peptide],Kd,[9],8 µM
"PYAIRAQHRAEMQESVQ (domain or fragment, UniProt O15169 345-361, looked up, Axin1 LIRα with R347, K350, R354 changed to alanine; also called Lip-LIRα RKR > A; not shown: Lipoyl solubility tag (Lip), N-terminal, kept) [RKR mutant Axin Lip-LIRα]",fold reduction of binding against wt Lip-LIRα,[13],~10 x
"His6x-Lip-A3_(Axin) (Axin_(308-426)) (domain or fragment, UniProt O15169 308-426, looked up, Axin1 fragment with LIR, PRTxR motif and GIR; source: E. coli BL21-CodonPlus(DE3)-RIL, purified (Ni-NTA, Superdex 75); 15N-labelled where observed by NMR; not shown: Lipoyl solubility tag (Lip), N-terminal, kept) AGYALAPATSANDSEQQSLSSDADTLSLTDSSVDGIPPYRIRKQHRREMQESVQVNGRVPLPHIPRTYRVPKEVRVEPQKFAEELIHRLEAVQRTREAEEKLEERLKRVRMEEEGEDGD",Kd,[2],> 500 µM
same,binding result,[14],binds
